Test results taken from publication PMC10790385, “Intracellular delivery of Parkin-RING0-based fragments corrects Parkin-induced mitochondrial dysfunction through interaction with SLP-2” (Journal of Translational Medicine, 2024).

Legend:
[1] = target: T1, recombinant full-length human Parkin protein (aa 1-465) (human, UniProt O60260 1-465); experiment: far-Western, overlay or dot blot; 2 µg recombinant SLP-2 separated by SDS-PAGE and transferred to a membrane, incubated with 60 µg recombinant Parkin, probed with anti-Parkin antibody; conditions: both partners purified
T1 construct: SUMO cleaved with ULP-1 protease; also called recombinant Parkin; source: E. coli One Shot BL21(DE3)pLysS, purified (IMAC, nondenaturing)

[2] = target: T2, recombinant human Parkin fragment aa 138-465 (human, UniProt O60260 138-465); experiment: far-Western, overlay or dot blot; 2 µg recombinant Parkin proteins (aa 1-465 and aa 138-465) separated by SDS-PAGE and transferred to immobilon membrane, incubated for 6 h with 80 µg recombinant SLP-2, probed with anti-SLP-2 antibody; conditions: both partners purified
T2 construct: SUMO cleaved with ULP-1 protease; source: E. coli One Shot BL21(DE3)pLysS, purified (IMAC, nondenaturing)
T2 sequence (looked up): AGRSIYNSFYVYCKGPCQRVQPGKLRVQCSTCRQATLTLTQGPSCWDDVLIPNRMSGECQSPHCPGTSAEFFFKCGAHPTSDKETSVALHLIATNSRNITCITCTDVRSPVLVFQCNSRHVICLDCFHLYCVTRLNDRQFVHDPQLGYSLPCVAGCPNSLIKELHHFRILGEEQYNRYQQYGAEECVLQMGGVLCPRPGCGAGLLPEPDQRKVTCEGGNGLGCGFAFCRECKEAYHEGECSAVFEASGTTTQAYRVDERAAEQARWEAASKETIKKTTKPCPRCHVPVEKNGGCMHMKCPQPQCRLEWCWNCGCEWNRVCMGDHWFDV

B1: recombinant human SLP-2 protein (aa 41-356) (domain or fragment, UniProt Q9UJZ1 41-356, looked up)
chain: VPQQEAWVVERMGRFHRILEPGLNILIPVLDRIRYVQSLKEIVINVPEQSAVTLDNVTLQIDGVLYLRIMDPYKASYGVEDPEYAVTQLAQTTMRSELGKLSLDKVFRERESLNASIVDAINQAADCWGIRCLRYEIKDIHVPPRVKESMQMQVEAERRKRATVLESEGTRESAINVAEGKKQAQILASEAEKAEQINQAAGEASAVLAKAKAKAEAIRILAAALTQHNGDAAASLTVAEQYVSAFSKLAKDSNTILLPSNPGDVTSMVAQAMGVYGALTKAPVPGTPDSLSSGSSRDVQGTDASLDEELDRVKMS
notes: Stomatin-like protein 2, human, aa 41-356; SUMO cleaved with ULP-1 protease; also called recombinant SLP-2; source: E. coli One Shot BL21(DE3)pLysS, purified (IMAC, nondenaturing)
B1: binds [1]; binds [2].
